Where “and” joins values, the source holds several entries; their conditions need not be identical. Equal entries are not always repeated. Marks after values point to notes of the source that are not given here.
Tests used:
[1] = target: rat GHRH receptor (GHRHR) in membrane fractions from ischemic rat heart (rat) (UniProt Q02644); assay: radioligand binding: in vitro ligand competition assay with radioiodinated JV-1-42 on ischemic rat heart membrane fractions
GHRH-R mRNA = assay: Real-time PCR of mRNA for GHRH-R and β-actin in rat heart tissue; type: in vivo; conditions: normalised to β-actin, Pfaffl method
Experimental: (§1) Total RNA from heart tissue was extracted using Trizol (Invitrogen, Carlsbad, Calif.). The quality of RNA isolated was tested using NanoDrop1000 (Thermo Fisher Scientific Inc., Wilmington, Del.). OD 260/280 ratio was in the range of 1.8 to 2.1 for all samples.
The expression of GHRHR was measured using real-time quantitative PCR as described previously by Havt et al (6).
We evaluated the mRNA expression of rat GHRH receptor (GHRH-R) and β-actin. The probes designed to evaluate the expression of GHRH-R and β-actin are 5′-/Cy5/ACCTCCGACTTTCTCAGTTCCTGTATGCCC/BHQ—2/-3′ and 5′-/6-FAM/ATCCTGCGTCTGGACCTGGCTGGC/BHQ—1/-3′, respectively. Gene specific primer sequences were the following: GHRH-R (sense) 5′-[…]-3′ and 5′-TGGTTTCCCTGGGCCTTGG-3′ (antisense) with a product size of 110 bp, β-actin: (sense) 5′-GGGTTACGCGCTCCCTCAT-3′ and 5′-[…]-3′ (antisense) with a product size of 133 bp.
All real-time PCR reactions were performed in the iCycler iQ™ Real-Time PCR Detection System (Bio-Rad, Hercules, Calif.). Thermal cycling conditions comprised an initial denaturation step at 95° C. for 3 min followed by 45 cycles at 95° C. for 30 sec and an annealing temperature at 60° C. for GHRH-R and β-actin for 1 min. As final steps, we included two cycles: one at 95° C. and the other at 60° C., both for 1 min. […]

[2] = test system: female 6-month-old Fisher-344 rats, MI induced by coronary artery ligation; assay: Histopathology: MI size, fibrosis, capillary density, myocyte width; type: in vivo, rat; conditions: rats post-MI after 4-week treatment
Experimental: (§2) MI induced by coronary artery ligation was performed in female 6-month-old Fisher-344 rats as described previously (40). Animals were randomly assigned to receive placebo, GHRH-agonist (GHRH-A [JI-38], 50 μg/kg) or rat recombinant GH (rrGH, 0.5 mg/kg) starting 2 hours post-surgery. All treatment was given subcutaneously twice daily for 4 weeks. The Institutional Animal Care and Use committee of University of Miami approved all protocols and experimental procedures.
(§3) At the end of the study, rat hearts were harvested for further analysis. Hearts were weighted and the basal portion, free of fibrotic tissue, was flash-frozen in liquid nitrogen for total RNA isolation and protein analysis. Remaining tissue was fixed with 10% formalin for histology.
Slides were prepared with H&E and Masson's trichrome stain to assess cardiac structure and the presence and extent of fibrosis and myocardial scar, respectively. The size of MI was determined using NIH Image version 1.30v for Windows to quantify the percentage area of fibrosis. An image-processing software (Imaging Processing Toolkit 5.0, Reindeer Graphics, Asheville, N.C.) and Adobe Photoshop CS2 (San Jose, Calif.) were used to assess the slides as previously described with minor modifications (3). The percentage of fibrosis was calculated by using the following formula: % fibrosis=fibrotic area/(fibrotic area+healthy area)
H&E stained sections of hearts from midventricular level were used to measure the myocyte width. At least 35-50 cardiomyocytes were counted and averaged at the level of the nuclei in non-infarcted remote myocardium.

serum IGF-I = assay: Rat serum IGF-I (radioimmunoassay) after 4-week treatment; type: in vivo; conditions: rats post-MI, blood 1-2 hours after last injection, vs. placebo
Experimental: as §2
(§4) At the end of the study, blood was drawn 1-2 hours after the last rrGH or GHRH-A injection and the serum was stored at −80° C. until the measurements were done. All the samples were assayed together and each sample was assayed in duplicate. Rat serum GH was measured using a rat GH Enzyme-Linked Immunosorbent Assay (ELISA) Kit (DSL-10-72100, DSL Webster, Tex.), following the manufacturer's recommendations. This test is an enzymatically amplified “one-step” sandwich-type enzyme immunoassay, where standards, controls and unknown samples are incubated in microtitration wells precoated with the anti-rat GH antibody. The standard curve of the assay was established with samples provided by the manufacturer. Rat serum IGF-I was measured using a rat IGF-I Radioimmunoassay Kit (DSL-2900, DSL Webster, Tex.), after extraction with acid ethanol, following the manufacturer's recommendations. […]

[3] = test system: female 6-month-old Fisher-344 rats, MI induced by coronary artery ligation; assay: Hemodynamic measurements (LV pressure-volume catheterization) post-MI; type: in vivo, rat; parameters: SW (stroke work) / Ees (end-systolic elastance): unit not given here; conditions: rats post-MI after 4-week treatment; for Heart rate: LV catheterization; for LVEDP / LVEDV: preload
Experimental: as §2
Rats were anesthetized by intramuscular injection of a mixture of ketamine (100 mg/kg), xylazine (20 mg/kg) and acepromazine (10 mg/kg). A 2-F micromanometer tipped catheter (SPR-838, Millar Instruments, Houston, Tex.) was inserted into the right carotid artery and advanced retrograde into the left ventricle. Measurements were calibrated by injecting a hypertonic saline (15%) bolus to determine extra-ventricular conductance; relative volume units were converted to actual volume using the cuvette calibration method (2). All analyses were performed using PVAN 3.0 software (Millar Instruments, Houston, Tex.).

[4] = test system: Bcl2 and Bax gene expression; assay: Real-time PCR of pro-apoptotic and anti-apoptotic genes (Bax, Bcl2) in rat heart; type: in vivo; conditions: rt-qPCR
Experimental: as §1
The monitoring of pro-apoptotic and anti-apoptotic genes was also assessed by real time PCR. First-strand cDNA was synthesized from 1 μg total RNA using the High-Capacity cDNA Reverse-Transcription Kit (Applied Biosystems, Inc., Foster City, Calif., USA), and ribosomal 18S RNA served as the housekeeping gene. We used TaqMan probes labeled with 6-carboxyfluorescein (FAM) for real-time RT-PCR reactions, according to manufacturer's protocol (Applied Biosystems, Inc., Foster City, Calif., USA). Data were analyzed by the threshold cycle (Ct) relative quantification method.

[5] = test system: female 6-month-old Fisher-344 rats, MI induced by coronary artery ligation; assay: Echocardiographic measurements post-MI; type: in vivo, rat; conditions: echocardiography
Experimental: as §2
Echocardiographic measurements were obtained at baseline, 2 days, 1, 2 and 4 weeks. Echocardiographic assessments were performed in anesthetized rats (2% isoflurane inhalation) using a Vevo-770 echocardiogram (Visual Sonics Inc., Toronto, Ontario, Canada) equipped with a 17.5-MHz transducer. Cardiac dimensions: LV end diastolic (LVEDD), end systolic (LVESD) diameters and fractional shortening (FS) were recorded from M-mode images using averaged measurements from 3 to 5 consecutive cardiac cycles according to the American Society of Echocardiography (1). Ejection fraction (EF) was calculated from bi-dimensional long-axis parasternal views taken through the infarcted area. All images were analyzed using Vevo 770 3.0.0 software (Visual Sonics Inc., Toronto, Ontario, Canada).

[6] = test system: female 6-month-old Fisher-344 rats, MI induced by coronary artery ligation; assay: Body weight and heart weight after MI, 4-week treatment; type: in vivo, rat; conditions: mean±SEM; for Heart weight (HW) / body weight (BW) after MI: rats post-MI; for Heart weight (HW): after 4-week treatment; for body weight (BW) after MI: week 4, s.c. twice daily 4 weeks, GHRH-A 50 μg/kg or rrGH 0.5 mg/kg; for body weight (BW), baseline: rats, baseline before MI and treatment
Experimental: as §2, §3

serum GH = assay: Rat serum GH (ELISA) after 4-week treatment; type: in vivo; conditions: rats post-MI, blood 1-2 hours after last injection, vs. placebo
Experimental: as §2, §4

[7] = test system: Ki67 positive cells and c-kit+ cardiac precursor cells in rat heart; assay: Immunostaining for Ki67 and c-kit positive cells in heart sections; type: in vivo; conditions: remote zone, relative to placebo and GHRH-A
Experimental: as §2
Paraffin sections were deparaffinized and rehydrated by immersion in xylene and a graded series of ethanols. Antigen retrieval was performed by a heat-induced method with citrate buffer (Dako, Carpinteria, Calif.). After blocking with 10% normal donkey serum, sections were incubated with a primary antibody (table S3), at 37° C. for 1 hour, followed by application of secondary antibody. Omission of the primary antibodies on parallel sections was used as negative control. Nuclei were counterstained with DAPI (Invitrogen, Carlsbad, Calif.). The total numbers of positively-stained cells were quantified per slide to calculate the number of cells per unit volume (mm^3) on each sample. Morphometric analysis was performed by using Adobe Photoshop CS3 (San Jose, Calif.)

Sequence of UniProt Q02644 (Q02644 23-464): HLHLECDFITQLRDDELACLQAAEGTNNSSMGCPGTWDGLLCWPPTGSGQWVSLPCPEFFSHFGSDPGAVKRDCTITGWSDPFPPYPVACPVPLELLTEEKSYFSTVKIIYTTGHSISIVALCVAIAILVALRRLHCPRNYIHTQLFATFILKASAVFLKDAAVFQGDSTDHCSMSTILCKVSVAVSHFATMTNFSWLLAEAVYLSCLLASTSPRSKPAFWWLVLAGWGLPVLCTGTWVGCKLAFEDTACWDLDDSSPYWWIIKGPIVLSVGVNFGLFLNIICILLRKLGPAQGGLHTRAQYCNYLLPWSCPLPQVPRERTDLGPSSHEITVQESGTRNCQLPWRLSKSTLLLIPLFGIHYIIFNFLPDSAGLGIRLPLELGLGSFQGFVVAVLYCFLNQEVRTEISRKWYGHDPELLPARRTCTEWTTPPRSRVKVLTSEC

GHRH antagonist JV-1-42 (radioiodinated derivative) (peptide)
Bmax (fmol/mg protein) [1]: 51.3
Kd [1]: 860 pM

[Dat^1, Gln^8, Orn^12,21, Abu^15, Nle^27, Asp^28, Agm^29]hGH-RH(1-29)NH2 [GHRH-A]
Ratio (GHRH-R gene expression level in treatment group compared to placebo group) (GHRH-R mRNA): 1.91
capillary density [2]: 0.006±0.001 /mm^2
serum IGF-I (serum IGF-I): did not increase
Heart rate [3]: 270 ± 17 bpm
Ea (arterial elastance) ([3]; afterload): 0.5 ± 0.004 mmHg/μl
LVESP ([3]; afterload): 83 ± 1.1 mmHg
Ees (end-systolic elastance) ([3]; contractility): 0.19 ± 0.02
LVEDP [3]: 8 ± 0.5 mmHg
LVEDV [3]: 421 ± 26 µL
expression of anti-apoptotic gene (Bcl2) [4]: upregulated
expression of pro-apoptotic gene (Bax) [4]: trended to be downregulated
ratio between Bax and Bcl2 expression ([4]; in comparison to placebo or rrGH): significantly reduced
EF ([5]; 4 weeks (W4) post-MI): 47±4% and 47.2 ± 4.0 ¶ %
FS ([5]; 4 weeks (W4) post-MI): 28.7±3.3%
LVEDD ([5]; 4 weeks (W4) post-MI): 7.7 ± 0.2 mm
EF ([5]; baseline (BSL)): 85.7 ± 1.6%
FS ([5]; baseline (BSL)): 53.1 ± 1.0%
LVEDD ([5]; baseline (BSL)): 6.3 ± 0.2 mm
LVESD ([5]; baseline (BSL)): 2.9 ± 0.1 mm
Heart weight (HW) [6]: 695 ± 26 mg
body weight (BW) after MI [6]: 225 ± 3 g
body weight (BW), baseline [6]: 231 ± 5 g
serum GH (serum GH): did not increase

B1: rrGH: Rat recombinant GH supplied by National Hormone and Pituitary Program (NHPP) (protein, UniProt P01244 27-216, looked up)
Somatotropin: FPAMPLSSLFANAVLRAQHLHQLAADTYKEFERAYIPEGQRYSIQNAQAAFCFSETIPAPTGKEEAQQRTDMELLRFSLLLIQSWLGPVQFLSRIFTNSLMFGTSDRVYEKLKDLEEGIQALMQELEDGSPRIGQILKQTYDKFDANMRSDDALLKNYGLLSCFKKDLHKAETYLRVMKCRRFAESSCAF
Ratio (GHRH-R gene expression level in treatment group compared to placebo group) (GHRH-R mRNA): 2.10 *
MI size (infarct size) ([2]; Masson's trichrome): 45±2%
capillary density [2]: 0.02±0.002 /mm^2
percentage of ventricular fibrosis [2]: 27±1%
expression of Ki67 positive cells [7]: higher
serum IGF-I (serum IGF-I): 1052 ± 91 ng/mL
Heart rate [3]: 247 ± 6.8 bpm
LVESP ([3]; afterload): 91 ± 2.3 mmHg
Ees (end-systolic elastance) ([3]; contractility): 0.33 ± 0.12
PRSW ([3]; contractility): 48 ± 5.0 mmHg
dP/dtmax ([3]; contractility): 6243 ± 313 mmHg/s
dP/dtmax_EDV ([3]; contractility): 17.5 ± 4.3 mmHg/s/l
dP/dtmin ([3]; lusitropy): 4028 ± 334 mmHg/s
LVEDP [3]: 10 ± 1.8 mmHg
LVEDV [3]: 351 ± 38 µL
CO (cardiac output) ([3]; pressure-volume derived): 22.5 ± 3.4 mL/min
EF ([3]; pressure-volume derived): 26.2 ± 1.7%
SV (stroke volume) ([3]; pressure-volume derived): 98 ± 13 µL
SW (stroke work) ([3]; pressure-volume derived): 6920 ± 790
Ea/Ees ([3]; ratio between arterial elastance and end-systolic elastance): 4.4 ± 0.6
TAU (G) ([3]; relaxation time constant, Glantz method): 19.9 ± 0.4 ms
EF ([5]; 4 weeks (W4) post-MI): 44±2% and 44.3 ± 2.3%
FS ([5]; 4 weeks (W4) post-MI): 20.3±1.3%
LVEDD ([5]; 4 weeks (W4) post-MI): 8.6 ± 0.1 mm
LVESD ([5]; 4 weeks (W4) post-MI): 6.8 ± 0.2 mm
EF ([5]; baseline (BSL)): 89.2 ± 0.4%
FS ([5]; baseline (BSL)): 58.2 ± 0.7%
LVEDD ([5]; baseline (BSL)): 5.9 ± 0.1 mm
LVESD ([5]; baseline (BSL)): 2.3 ± 0.1 mm
Heart weight (HW) [6]: 850 ± 38 mg
body weight (BW) after MI [6]: 256 ± 3 g
body weight (BW), baseline [6]: 217 ± 4 g
serum GH (serum GH): 679 ± 196 ng/mL

Reference: patent US8507433B1, “Cardioprotective effects of GHRH agonists” (University of Miami, priority 2010, dated 2013)
